# In patent US20200231645A1:
# Assays:
# PCSK9 = PCSK9 (UniProt Q8NBP7); test: cell-based or functional assay
# [1] = target: human GLP-1 receptor (human) (UniProt P43220); test: cell-based or functional assay
# human GLP-1 receptor (human), sequence (P43220 24-463): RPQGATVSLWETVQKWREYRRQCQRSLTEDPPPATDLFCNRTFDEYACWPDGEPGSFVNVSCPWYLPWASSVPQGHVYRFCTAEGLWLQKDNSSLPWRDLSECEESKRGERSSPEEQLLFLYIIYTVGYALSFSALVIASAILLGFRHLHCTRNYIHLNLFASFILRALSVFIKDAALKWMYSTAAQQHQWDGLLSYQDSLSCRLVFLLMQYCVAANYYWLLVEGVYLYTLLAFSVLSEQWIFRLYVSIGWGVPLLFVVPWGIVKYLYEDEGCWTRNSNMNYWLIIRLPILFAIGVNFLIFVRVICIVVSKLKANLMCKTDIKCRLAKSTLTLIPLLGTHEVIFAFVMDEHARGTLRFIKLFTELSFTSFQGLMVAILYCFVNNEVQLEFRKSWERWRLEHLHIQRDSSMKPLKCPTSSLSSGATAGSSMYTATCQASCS
"LDL-R expression in mouse liver, Percentage of baseline (%), dose of inhibitor 22 nmol/kg (PCSK9)",EC50 (pM) 0% HSA [1],EC50 (pM) 1% HSA [1],Substance
157%,–,–,Alirocumab (antibody)
–,7.3 pM,210 pM,Semaglutide (peptide)
